Experimental data published in paper PMC11594144.

Columns and labels:
[1] = target: Vip3Aa64 protoxin, wild type (Bacillus thuringiensis); assay: AUC
[2] = target: Vip3Aa64 protoxin, wild type (Bacillus thuringiensis); assay: mass photometry

Vip3Aa64 protoxin, wild type (natural protein)
stoichiometry N [1]: 4
stoichiometry N [2]: 4
